Reference: publication PMC3093405, “A Motif Unique to the Human Dead-Box Protein DDX3 Is Important for Nucleic Acid Binding, ATP Hydrolysis, RNA/DNA Unwinding and HIV-1 Replication” (PLoS ONE, 2011)

B1: DDX1: full length human DEAD-box protein DDX1, recombinant, largest known insertion between motifs I and Ia (protein, UniProt Q92499 1-740, looked up)
chain: MAAFSEMGVMPEIAQAVEEMDWLLPTDIQAESIPLILGGGDVLMAAETGSGKTGAFSIPVIQIVYETLKDQQEGKKGKTTIKTGASVLNKWQMNPYDRGSAFAIGSDGLCCQSREVKEWHGCRATKGLMKGKHYYEVSCHDQGLCRVGWSTMQASLDLGTDKFGFGFGGTGKKSHNKQFDNYGEEFTMHDTIGCYLDIDKGHVKFSKNGKDLGLAFEIPPHMKNQALFPACVLKNAELKFNFGEEEFKFPPKDGFVALSKAPDGYIVKSQHSGNAQVTQTKFLPNAPKALIVEPSRELAEQTLNNIKQFKKYIDNPKLRELLIIGGVAARDQLSVLENGVDIVVGTPGRLDDLVSTGKLNLSQVRFLVLDEADGLLSQGYSDFINRMHNQIPQVTSDGKRLQVIVCSATLHSFDVKKLSEKIMHFPTWVDLKGEDSVPDTVHHVVVPVNPKTDRLWERLGKSHIRTDDVHAKDNTRPGANSPEMWSEAIKILKGEYAVRAIKEHKMDQAIIFCRTKIDCDNLEQYFIQQGGGPDKKGHQFSCVCLHGDRKPHERKQNLERFKKGDVRFLICTDVAARGIDIHGVPYVINVTLPDEKQNYVHRIGRVGRAERMGLAISLVATEKEKVWYHVCSSRGKGCYNTRLKEDGGCTIWYNEMQLLSEIEEHLNCTISQVEPDIKVPVDEFDGKVTYGQKRAAGGGSYKGHVDILAPTVQELAALEKEAQTSFLHLGYLPNQLFRTF
modifications: full-length
notes: full length human DEAD-box protein DDX1, recombinant, largest known insertion between motifs I and Ia
B2: I-DDX3: double deletion DDX3 mutant (Δ1–159/Δ428–662), aa 160–427, helicase core of subdomain 1 (protein, UniProt O00571 160-427, looked up, fragment)
chain: FEKYDDIPVEATGNNCPPHIESFSDVEMGEIIMGNIELTRYTRPTPVQKHAIPIIKEKRDLMACAQTGSGKTAAFLLPILSQIYSDGPGEALRAMKENGRYGRRKQYPISLVLAPTRELAVQIYEEARKFSYRSRVRPCVVYGGADIGQQIRDLERGCHLLVATPGRLVDMMERGKIGLDFCKYLVLDEADRMLDMGFEPQIRRIVEQDTMPPKGVRHTMMFSATFPKEIQMLARDFLDEYIFLAVGRVGSTSENITQKVVWVEESDK
B3: N-DDX3: DDX3 mutant lacking the C-terminus (Δ428–662), aa 1–427, entire subdomain 1 plus linker (protein, UniProt O00571 1-427, looked up, fragment)
chain: MSHVAVENALGLDQQFAGLDLNSSDNQSGGSTASKGRYIPPHLRNREATKGFYDKDSSGWSSSKDKDAYSSFGSRSDSRGKSSFFSDRGSGSRGRFDDRGRSDYDGIGSRGDRSGFGKFERGGNSRWCDKSDEDDWSKPLPPSERLEQELFSGGNTGINFEKYDDIPVEATGNNCPPHIESFSDVEMGEIIMGNIELTRYTRPTPVQKHAIPIIKEKRDLMACAQTGSGKTAAFLLPILSQIYSDGPGEALRAMKENGRYGRRKQYPISLVLAPTRELAVQIYEEARKFSYRSRVRPCVVYGGADIGQQIRDLERGCHLLVATPGRLVDMMERGKIGLDFCKYLVLDEADRMLDMGFEPQIRRIVEQDTMPPKGVRHTMMFSATFPKEIQMLARDFLDEYIFLAVGRVGSTSENITQKVVWVEESDK

How the values were obtained:
Assay type in all cases: biochemical
[1] = ATPase activity assay ([γ-32P]ATP hydrolysis, TLC), steady-state kinetics; conditions: for Intrinsic ability to hydrolyze ATP: absence of nucleic acid; for Stimulation of ATPase activity by nucleic acids: presence of both NA (RNA, DNA)
Method: (§1) The ATPase activity was determined, as previously described, by directly monitoring [γ-^32P] ATP hydrolysis by thin-layer chromatography (TLC). ATP (3000 Ci/mmol) as tracer, plus 1 mM of cold ATP, unless otherwise stated, and nucleic acids as indicated. Samples were incubated for 5 minutes at 25°C and dotted onto TLC sheets of polyethylenimine cellulose. The products were separated by ascending chromatography with 0.5 M KH2PO4 (pH 3.4). The intensities of the radioactive bands corresponding to ATP and Pi were quantified by densitometric scanning with PhosphoImager. For the stimulation of the ATPase activity, the ssDNA oligonucleotide oligo(dT)20 or the ssRNA oligonucleotide oligo (rU)20 were used. Time-course experiments were performed under the conditions described above. Samples were taken at different time points and processed as described above.
ATPase reactions were performed as described, in the presence of increasing amounts of nucleic acids and variable ATP concentrations. […] The relative -fold increase in the ATPase velocities 1−(vDNA/v) as a function of the nucleic acid concentrations was fitted to the hyperbolic relationship: [drawing 2] (2) where vNA is the apparent velocity of the reaction in the presence of nucleic acid, v is the velocity in its absence, KD is the apparent affinity for the nucleic acid and [NA] is the concentration of the nucleic acid substrate. The symbol KD is used, instead of Km, solely to reflect the fact that the NA is not a reactant (i.e. it is not converted into products) but only a cofactor of the reaction, without implying any assumption on the nature of the microscopic rates contributing to the KD value itself.

[2] = system: partially dsDNA substrates (18/38-mer); assay: DNA helicase assay; conditions: for DNA helicase activity: data not shown
Excerpt: (§2) The helicase activity of DDX3wt and mutant forms was monitored by measuring the conversion of a double stranded (ds) DNA or RNA (labelled at the 5′-end of one strand with a 6-FAM fluorescent group) into single stranded (ss) nucleic acid. For the RNA helicase assay, a 18/36mer ds RNA oligonucleotide with both 3′ and 5′-protruding ss ends was used. For the DNA helicase assay, three different dsDNA substrates were used, all of them composed of the same 18mer oligonucleotide 5′-FAM labelled and three different 38 mer oligonucleotides with the sequence complementary to the 18 mer at different positions. Annealing of the 18 mer to each of the 38 mer generated the different DNA substrates shown in Fig. 5 A. A final concentration of 20 nM RNA or DNA substrate was used in the experiments, unless otherwise stated. The amounts of the different DDX3 proteins are indicated in the respective Figures.
Reactions were performed in 50 mM TrisHCl pH 7.5, 1 mM DTT, 0.2 mg/ml BSA, 5% glycerol and 1 mM ATP, 10 mM MgCl2 at 37°C degrees for 10′ and stopped by adding EDTA 50 mM pH 8. Products were separated on a native 7% PAGE […] at 5 W in TBE buffer with 0.1% SDS at 4°C for 2 hours for RNA substrates, 4 hours for DNA substrates. Substrates and products were quantified by laser scanning densitometry (Thyphoon-TRIO, GE Healthcare). For trap-assays, the enzyme and the RNA substrate were incubated on ice for 4 min, in the absence of ATP. Reactions were started by addition of ATP and a 50-fold molar excess (1 µM) of r(A)40 trap RNA oligonucleotide, followed by incubation at 37°C for the indicated times.

[3] = system: 18/36mer ds RNA oligonucleotide; assay: RNA helicase assay; conditions: data not shown
Excerpt: as §2
Reactions were performed in 50 mM TrisHCl pH 7.5, 1 mM DTT, 0.2 mg/ml BSA, 5% glycerol and 1 mM ATP, 10 mM MgCl2 at 37°C degrees for 10′ and stopped by adding EDTA 50 mM pH 8. Products were separated on a native 7% PAGE […] at 5 W in TBE buffer with 0.1% SDS at 4°C for 2 hours for RNA substrates, 4 hours for DNA substrates. Substrates and products were quantified by laser scanning densitometry (Thyphoon-TRIO, GE Healthcare). […]

[4] = ATPase time-course (burst kinetics)
Method: as §1
Variation of the ATPase reaction as a function of time was fitted to the mixed-exponential equation: [drawing 3] (3) where [P] is the concentration of products (pmols) at any given time point, t is time, Aburst is the burst amplitude, k burst is the rate of the exponential phase, k ss is the rate of the steady-state linear phase.

[5] = relative to absence of nucleic acid

Molecule	k cat ([1]; +DNA, oligo(dT)20) [s⁻¹]	k cat ([1]; +RNA, oligo(rU)20) [s⁻¹]	k cat ([1]; absence of nucleic acids) [s⁻¹]	Increase of catalytic efficiency (kcat/Km) by DNA [1, 5] [fold]	Increase of catalytic efficiency (kcat/Km) by RNA [1, 5] [fold]	DNA unwinding ([2]; DNA duplex with both 5′- and 3′-protruding ssDNA ends, 18/[5′-3′]-38 mer)	Intrinsic ability to hydrolyze ATP [1]	Stimulation of ATPase activity by nucleic acids [1]	RNA helicase activity [3]	Aburst ([4]; +DNA, oligo(dT)20) [µM]	k burst ([4]; +DNA, oligo(dT)20) [min⁻¹]	k ss ([4]; +DNA, oligo(dT)20) [min⁻¹]	Aburst ([4]; +RNA, oligo(rU)20) [µM]	k burst ([4]; +RNA, oligo(rU)20) [min⁻¹]	k ss ([4]; +RNA, oligo(rU)20) [min⁻¹]	Aburst ([4]; absence of nucleic acids) [µM]	k burst ([4]; absence of nucleic acids) [min⁻¹]	k ss ([4]; absence of nucleic acids) [min⁻¹]	DNA helicase activity [2]
B1	0.035 ± 0.005	0.0633 ± 0.0083	0.0317 ± 0.005	1.3	2.6	did not display DNA unwinding capability	–	–	–	–	–	–	–	–	–	–	–	–	–
B2	0.0233 ± 0.0067	0.0267 ± 0.0083	0.0183 ± 0.0033	–	–	–	low but detectable ATPase activity	no stimulation	did not show helicase activity	0.15 ± 0.02	0.4 ± 0.6	0.3 ± 0.05	0.11 ± 0.03	0.4 ± 0.5	0.4 ± 0.04	0.12 ± 0.02	0.3 ± 0.4	0.3 ± 0.05	inactive
B3	0.0183 ± 0.0083	0.0163 ± 0.0005	0.013 ± 0.005	–	–	–	low but detectable ATPase activity	no stimulation	did not show helicase activity	0.12 ± 0.01	0.5 ± 0.5	0.33 ± 0.05	0.13 ± 0.01	0.5 ± 0.5	0.35 ± 0.06	0.12 ± 0.02	1 ± 0.5	0.4 ± 0.05	inactive
